Experimental data published in the supplement of paper PMC7877785.
± gives the uncertainty stated by the source.

Assay: self-splicing fitness, log relative to wild type (ln ratio); higher = more splicing; Tetrahymena group I intron in knt gene, E. coli kanamycin selection, DiMSum; sequences stand for … in CUCUCU…GGAGGGAAAAGUUAUCAGGCAUGCACCUGGUAGCUAGUCUUUAAACCAAUAGAUUGCAUCGGUUUAAAAGGCAAGACCGUCAAAUUGCGGGAAAGGGGUCAACAGCCGUUCAGUACCAAGUCUCAGGGGAAACUUUGAGAUGGCCUUGCAAAGGGUAUGGUAAUAAGCUGACGGACAUGGUCCUAACCACGCAGCCAAGUCCUAAGUCAACAGAUCUUCUGUUGAUAUGGAUGCAGUUCACAGACUAAAUGUCGGUCGGGGAAGAUGUAUUCUUCUCAUAAGAUAUAGUCGGACCUCUCCUUAAUGGGAGCUAGCGGAUGAAGUGAUGCAACACUGGAGCCGCUGGGAACUAAUUUGUAUGCGAAAGUAUAUUGAUUAGUUUUGGAGUACUCGUGGUCG
In short: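 DiMSum derived fitness as the error-weighted combination of fold changes across replicates, kanamycin versus no kanamycin, normalised to wild type. E. coli BL21(DE3) held the library, which randomised all eight P1ex-region intron nucleotides within the knt kanamycin-resistance gene on pET-22b(+). Six replicate transformations grew overnight at 37°C or 30°C on LB agar with or without 25 μg/mL kanamycin, also containing 100 μg/mL carbenicillin, 50 μM IPTG and 0.2% rhamnose, and pooled colonies were amplicon-sequenced on an Illumina HiSeq 2500.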

For GGGCAGCAAUAUUACGUACG, the “self-splicing fitness (ln)” value (30 °C) was -0.697 ± 0.12 and the “self-splicing fitness (ln)” value (37 °C) was -0.0767 ± 0.14.

With CAAAAGCAAUAUUACGCGGC the “self-splicing fitness (ln)” value (30 °C) was -2.85 ± 0.21 and the “self-splicing fitness (ln)” value (37 °C) was -2.21 ± 0.28.

For CAUUAGCAAUAUUACGCGAU, the “self-splicing fitness (ln)” value (30 °C) was -3.83 ± 0.32 and the “self-splicing fitness (ln)” value (37 °C) was -1.52 ± 0.23.

For CAUAAGCAAUAUUACGGUGU, the “self-splicing fitness (ln)” value (30 °C) was -3.84 ± 0.15 and the “self-splicing fitness (ln)” value (37 °C) was -2.38 ± 0.14.

In the case of GCGUAGCAAUAUUACGGUUA, the “self-splicing fitness (ln)” value (30 °C) is reported as -0.359 ± 0.1 and the “self-splicing fitness (ln)” value (37 °C) is reported as -0.119 ± 0.09.

In the case of GACGAGCAAUAUUACGUCGA, the “self-splicing fitness (ln)” value (30 °C) is reported as -1.82 ± 0.23.

In the case of CCCUAGCAAUAUUACGUCGU, the “self-splicing fitness (ln)” value (30 °C) is reported as -3.42 ± 0.2 and the “self-splicing fitness (ln)” value (37 °C) is reported as -1.43 ± 0.19.

In the case of AUUGAGCAAUAUUACGUCAG, the “self-splicing fitness (ln)” value (30 °C) is reported as -2.96 ± 0.2 and the “self-splicing fitness (ln)” value (37 °C) is reported as -2.3 ± 0.45.

With GUCGAGCAAUAUUACGAUAC the “self-splicing fitness (ln)” value (30 °C) was -0.265 ± 0.28 and the “self-splicing fitness (ln)” value (37 °C) was -0.381 ± 0.24.

In the case of UUGGAGCAAUAUUACGGAGA, the “self-splicing fitness (ln)” value (30 °C) is reported as -2.59 ± 0.37 and the “self-splicing fitness (ln)” value (37 °C) is reported as -1.08 ± 0.23.

With UGGUAGCAAUAUUACGUCGU the “self-splicing fitness (ln)” value (30 °C) was -2.83 ± 0.15 and the “self-splicing fitness (ln)” value (37 °C) was -1.59 ± 0.16.

In the case of AAACAGCAAUAUUACGCGCG, the “self-splicing fitness (ln)” value (30 °C) is reported as -1.2 ± 0.067 and the “self-splicing fitness (ln)” value (37 °C) is reported as -0.673 ± 0.081.

For AAAAAGCAAUAUUACGUUAA, the “self-splicing fitness (ln)” value (30 °C) was -2.66 ± 0.12 and the “self-splicing fitness (ln)” value (37 °C) was -1.05 ± 0.093.

In the case of AGUUAGCAAUAUUACGUAAA, the “self-splicing fitness (ln)” value (30 °C) is reported as -2.85 ± 0.28 and the “self-splicing fitness (ln)” value (37 °C) is reported as -1.4 ± 0.26.

For CCGCAGCAAUAUUACGAUGC, the “self-splicing fitness (ln)” value (30 °C) was -4.08 ± 0.28 and the “self-splicing fitness (ln)” value (37 °C) was -2.88 ± 0.23.

For ACGUAGCAAUAUUACGGCUA, the “self-splicing fitness (ln)” value (30 °C) was -1.9 ± 0.12 and the “self-splicing fitness (ln)” value (37 °C) was -2.26 ± 0.18.

For UCAUAGCAAUAUUACGUACG, the “self-splicing fitness (ln)” value (30 °C) was -1.57 ± 0.12 and the “self-splicing fitness (ln)” value (37 °C) was -0.499 ± 0.13.

With UUCCAGCAAUAUUACGGGCA the “self-splicing fitness (ln)” value (30 °C) was -0.578 ± 0.067 and the “self-splicing fitness (ln)” value (37 °C) was 0.454 ± 0.089.

In the case of UCGUAGCAAUAUUACGUGGC, the “self-splicing fitness (ln)” value (30 °C) is reported as -4.04 ± 0.16 and the “self-splicing fitness (ln)” value (37 °C) is reported as -2.22 ± 0.12.

In the case of CGGUAGCAAUAUUACGGCCC, the “self-splicing fitness (ln)” value (30 °C) is reported as -0.507 ± 0.2 and the “self-splicing fitness (ln)” value (37 °C) is reported as 0.668 ± 0.37.

In the case of UCGUAGCAAUAUUACGAUCG, the “self-splicing fitness (ln)” value (30 °C) is reported as -2.77 ± 0.23 and the “self-splicing fitness (ln)” value (37 °C) is reported as -0.597 ± 0.18.

With CCGCAGCAAUAUUACGAUCC the “self-splicing fitness (ln)” value (30 °C) was -3.04 ± 0.19 and the “self-splicing fitness (ln)” value (37 °C) was -2.71 ± 0.36.

In the case of UUAAAGCAAUAUUACGGGCG, the “self-splicing fitness (ln)” value (30 °C) is reported as 0.077 ± 0.081 and the “self-splicing fitness (ln)” value (37 °C) is reported as -0.11 ± 0.1.

For CAGGAGCAAUAUUACGGUAA, the “self-splicing fitness (ln)” value (37 °C) was -2.51 ± 0.44.

For CCUAAGCAAUAUUACGUACU, the “self-splicing fitness (ln)” value (30 °C) was -3.76 ± 0.43 and the “self-splicing fitness (ln)” value (37 °C) was -3.01 ± 0.29.

For CCAAAGCAAUAUUACGCUUC, the “self-splicing fitness (ln)” value (30 °C) was -3.37 ± 0.18 and the “self-splicing fitness (ln)” value (37 °C) was -2.48 ± 0.18.

In the case of UCUUAGCAAUAUUACGAGGA, the “self-splicing fitness (ln)” value (30 °C) is reported as -2.34 ± 0.19 and the “self-splicing fitness (ln)” value (37 °C) is reported as -1.58 ± 0.19.

For CUGGAGCAAUAUUACGGAGG, the “self-splicing fitness (ln)” value (37 °C) was -2.18 ± 0.36.

With CCUUAGCAAUAUUACGACUA the “self-splicing fitness (ln)” value (37 °C) was -2.23 ± 0.5.

In the case of UGUAAGCAAUAUUACGGUCU, the “self-splicing fitness (ln)” value (30 °C) is reported as -0.465 ± 0.089 and the “self-splicing fitness (ln)” value (37 °C) is reported as -0.33 ± 0.11.

For AAGGAGCAAUAUUACGUACA, the “self-splicing fitness (ln)” value (30 °C) was -2.75 ± 0.33 and the “self-splicing fitness (ln)” value (37 °C) was -2.11 ± 0.21.

In the case of AGUCAGCAAUAUUACGUCCC, the “self-splicing fitness (ln)” value (30 °C) is reported as -1.52 ± 0.22 and the “self-splicing fitness (ln)” value (37 °C) is reported as 0.485 ± 0.27.

With GCUUAGCAAUAUUACGAGGU the “self-splicing fitness (ln)” value (30 °C) was -4.11 ± 0.21 and the “self-splicing fitness (ln)” value (37 °C) was -2.55 ± 0.18.

With ACUUAGCAAUAUUACGUCCG the “self-splicing fitness (ln)” value (30 °C) was -2.09 ± 0.2 and the “self-splicing fitness (ln)” value (37 °C) was -0.774 ± 0.25.

In the case of UCGAAGCAAUAUUACGAGUU, the “self-splicing fitness (ln)” value (30 °C) is reported as -3.31 ± 0.15 and the “self-splicing fitness (ln)” value (37 °C) is reported as -2.04 ± 0.21.

For UACCAGCAAUAUUACGAUAC, the “self-splicing fitness (ln)” value (37 °C) was -2.39 ± 0.19.

With CAUGAGCAAUAUUACGCAAC the “self-splicing fitness (ln)” value (30 °C) was -1.07 ± 0.29 and the “self-splicing fitness (ln)” value (37 °C) was -1.69 ± 0.43.

With UGCGAGCAAUAUUACGAUCU the “self-splicing fitness (ln)” value (30 °C) was -1.84 ± 0.21 and the “self-splicing fitness (ln)” value (37 °C) was -1.06 ± 0.16.

With ACUUAGCAAUAUUACGGCUC the “self-splicing fitness (ln)” value (30 °C) was -0.897 ± 0.061 and the “self-splicing fitness (ln)” value (37 °C) was -0.503 ± 0.077.
